Here are results for 1 molecule from patent US7919091B2, “Lipolysis stimulated receptor (LSR) specific antibodies” (Serono Genetics Institute S.A., priority 1997, dated 2011).

A short description of data set [1]: Clearance of 125I-leptin in mice. Type of data set: in vivo. The method, then:
The female control, ob/ob, or db/db mice (6-8 weeks), on an empty stomach, are anaesthetized and receive via the saphenous vein an injection of 80 ng of murine recombinant ^125I-leptin or of ^125I-β2-microglobulin (Sigma, labelled by the Iodobeads method, like leptin). Five minutes later, the animals are infused with a physiological saline solution (15 ml, at 4° C.). The tissues are collected and counted for their radioactivity (Gamma counter). In some cases, an anti-LSR antibody or a control protein are injected 30 minutes after injection of ^125I-leptin. It is important to note that the labelling of leptin with ^125I has no effect on its biological activity.

The test system of data set [2] is LSR receptors. Set-up: species or system mice. Particulars: mouse. On the procedure: The apparent number of LSR receptors on plasma membranes is measured as previously described (Mann et al., 1995) by estimating the quantity of LDL bound to a plasma membrane preparation. The plasma membranes (100 μg) are incubated with 1 mM oleate; they are then washed three times as indicated above, and then incubated for 1 hour at 37° C. with 40 μg/ml of ^125I-LDL. The quantity of ^125I-LDL bound to the plasma membranes is then determined by counting. The mean is established on 3 measurements per animal for 3 different animals in each of the groups.

A short description of data set [3]: Long-term treatment with leptin on ob/ob mice: weight and postprandial lipemic response. Format: in vivo. The method, then: (§1) The ob/ob obese mice received a daily injection of either leptin, or of an equivalent volume of sterile PBS, for 30 days. The injected doses are 50 μg/animal from day 0 to day 4, 100 μg/animal from day 5 to day 17, and 150 μg/animal from day 18 to day 30. Several parameters indicated below are measured: • the weight (FIG. 29 A): the change in weight is measured for 6 animals, over the duration of the treatment; • the postprandial lipemic response (FIG. 29 B): it is measured according to the protocol detailed in Example 5 on three animals in each group, on day 29; • the apparent number of LSR receptors (FIG. 29 C): it is measured according to the protocol detailed in Example 4 on three animals in each group, on day 30; • the quantity of LSR mRNA ([…]): it is estimated by Northern blotting as indicated in the protocol of Example 2.

Data set [4] deals with LSR receptors. The experiment in a line: Long-term treatment with leptin on ob/ob mice: LSR receptor number and LSR mRNA. Type of data set: in vivo. On the procedure: as §1
Data set [5] addresses T1, LSR (Homo sapiens, UniProt Q86X29).
T1 construct: GM00486A, GM007001B, GM00488C; host or cells: human skin fibroblasts, normal or HF (familial hypercholesterolemia, LDL-receptor deficient)
T1 sequence (Q86X29 1-649) 1: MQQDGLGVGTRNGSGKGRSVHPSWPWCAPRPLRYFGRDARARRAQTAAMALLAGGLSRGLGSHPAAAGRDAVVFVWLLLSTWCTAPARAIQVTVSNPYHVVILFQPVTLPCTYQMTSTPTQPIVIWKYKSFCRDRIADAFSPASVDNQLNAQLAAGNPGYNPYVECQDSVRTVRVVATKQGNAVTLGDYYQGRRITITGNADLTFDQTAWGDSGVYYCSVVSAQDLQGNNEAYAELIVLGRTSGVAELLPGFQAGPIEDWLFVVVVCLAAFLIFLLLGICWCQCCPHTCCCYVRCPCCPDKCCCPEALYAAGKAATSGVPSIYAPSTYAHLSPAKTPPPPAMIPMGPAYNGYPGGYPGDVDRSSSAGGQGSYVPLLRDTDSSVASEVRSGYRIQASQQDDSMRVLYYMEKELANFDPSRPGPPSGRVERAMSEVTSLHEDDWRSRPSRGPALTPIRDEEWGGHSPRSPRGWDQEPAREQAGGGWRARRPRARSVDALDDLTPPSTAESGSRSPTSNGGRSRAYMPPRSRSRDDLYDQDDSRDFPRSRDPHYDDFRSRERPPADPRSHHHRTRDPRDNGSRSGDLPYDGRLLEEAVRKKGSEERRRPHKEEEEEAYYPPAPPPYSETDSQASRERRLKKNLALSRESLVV
T1 sequence (Q86X29 1-649) 2: T1 sequence (Q86X29 1-649) 1
The experiment in a line: Effect of leptin on the LSR activity of human fibroblasts HF. Format: cell-based. As to conditions: incubation with increasing leptin, 50 μg/ml 125I-LDL, 500 μM oleate. On the procedure:
The fibroblasts HF are incubated for 30 minutes at 37° C. with increasing concentrations of leptin, and then for 2 hours at 37° C. with 50 μg/ml of ^125I-LDL, in the presence of 500 μM oleate. The binding, internalization and degradation of the LDLs are measured as indicated in Example 1.

B1: leptin: mouse recombinant leptin with hexahistidine end, expressed in E. coli (protein, UniProt P41160 22-167, looked up)
Leptin: VPIQKVQDDTKTLIKTIVTRINDISHTQSVSAKQRVTGLDFIPGLHPILSLSKMDQTLAVYQQVLTSLPSQNVLQIANDLENLRDLLHLLAFSKSCSLPQTSGLQKPESLDGVLEASLYSTEVVALSRLQGSLQDILQQLDVSPEC
modifications: hexahistidine tag
notes: mouse recombinant leptin with hexahistidine end, expressed in E. coli
On to B1, for which the “renal capture of leptin” value in data set [1] (between control, ob/ob and db/db lines, 5 minutes after injection) is “no difference”. The “quantity of leptin selectively captured by the liver” value in data set [1] (obese (ob/ob, db/db) mice compared with control mice, 5 minutes after injection) is recorded as “reduced”. The speed of clearance result in data set [1] (radiolabelled recombinant leptin, obese and control mice) is recorded as “rapid speed of clearance”. The “injected dose found in liver and kidney” value in data set [1] (radiolabelled recombinant leptin, obese and control mice, after 10 minutes) came out at 50%. The “apparent number of LSR receptors expressed at the surface of the hepatocytes in vivo” value in data set [2] was “increase”. Besides, the weight result in data set [3] (daily leptin injection over 30 days) is recorded as “very significant loss of weight”. Also, the postprandial lipemic response result in data set [3] (day 29 of leptin treatment) is given as “clear reduction”. The “apparent number of LSR receptors at the surface of the cells” value in data set [4] (day 30 of leptin treatment) is “increase”. In addition, the “quantity of mRNA encoding the subunits of the LSR receptor” value in data set [4] (leptin 30 days, Northern blotting of liver RNA) was “increase”. Besides, in data set [5], the “LSR activity of human fibroblasts HF” value is “increased”.
